According to doi:10.1101/870071 (bioRxiv, 2019):

B1: His-Bem1p (natural protein, yeast, UniProt P29366 1-551, looked up)
chain: MLKNFKLSKRDSNGSKGRITSADISTPSHDNGSVIKHIKTVPVRYLSSSSTPVKSQRDSSPKNRHNSKDITSPEKVIKAKYSYQAQTSKELSFMEGEFFYVSGDEKDWYKASNPSTGKEGVVPKTYFEVFDRTKPSSVNGSNSSSRKVTNDSLNMGSLYAIVLYDFKAEKADELTTYVGENLFICAHHNCEWFIAKPIGRLGGPGLVPVGFVSIIDIATGYATGNDVIEDIKSVNLPTVQEWKSNIARYKASNISLGSVEQQQQQSITKPQNKSAKLVDGELLVKASVESFGLEDEKYWFLVCCELSNGKTRQLKRYYQDFYDLQVQLLDAFPAEAGKLRDAGGQWSKRIMPYIPGPVPYVTNSITKKRKEDLNIYVADLVNLPDYISRSEMVHSLFVVLNNGFDREFERDENQNNIKTLQENDTATFATASQTSNFASTNQDNTLTGEDLKLNKKLSDLSLSGSKQAPAQSTSGLKTTKIKFYYKDDIFALMLKGDTTYKELRSKIAPRIDTDNFKLQTKLFDGSGEEIKTDSQVSNIIQAKLKISVHDI
B2: His-GIV-CT (C-terminus of GIV/Girdin), wild type (domain or fragment)
chain: SETLESRHHKIKTGSPGSEVVTLQQFLEESNKLTSVQIKSSSQENLLDEVMKSLSVSSDFLGKDKPVSCGLARSVSGKTPGDFYDRRTTKPEFLRPGPRKTEDTYFISSAGKPTPGTQGKIKLVKESSLSRQSKDSNPYATLPRASSVISTAEGTTRRTSIHDFLTKDSRLPISVDSPPAAADSNTTAASNVDKVQESRNSKSRSREQQSS

Legend:
[1] = biological target: GST-Exo70p (yeast Exo70) (yeast, UniProt P19658 1-623); experiment: pull-down
GST-Exo70p (yeast Exo70), sequence (P19658 whole entry): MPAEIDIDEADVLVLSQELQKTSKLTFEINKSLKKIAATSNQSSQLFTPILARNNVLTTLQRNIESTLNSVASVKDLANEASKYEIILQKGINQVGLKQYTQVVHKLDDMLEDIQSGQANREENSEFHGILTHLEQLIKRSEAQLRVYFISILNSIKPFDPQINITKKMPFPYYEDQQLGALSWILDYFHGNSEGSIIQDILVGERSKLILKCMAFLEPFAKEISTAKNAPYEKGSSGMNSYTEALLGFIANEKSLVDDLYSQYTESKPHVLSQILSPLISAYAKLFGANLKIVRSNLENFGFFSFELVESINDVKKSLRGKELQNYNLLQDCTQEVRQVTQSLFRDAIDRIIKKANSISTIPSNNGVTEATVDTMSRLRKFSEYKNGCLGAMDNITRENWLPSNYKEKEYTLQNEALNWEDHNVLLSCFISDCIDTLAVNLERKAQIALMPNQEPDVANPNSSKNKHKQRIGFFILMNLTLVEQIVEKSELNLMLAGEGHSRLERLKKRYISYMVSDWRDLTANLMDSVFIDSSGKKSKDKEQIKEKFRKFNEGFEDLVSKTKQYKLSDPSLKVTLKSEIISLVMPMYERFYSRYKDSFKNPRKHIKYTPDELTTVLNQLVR

[2] = biological target: GST-hExo70 (human Exo70) (human, UniProt Q9UPT5 1-735); experiment: pull-down
GST-hExo70 (human Exo70), sequence (Q9UPT5 whole entry): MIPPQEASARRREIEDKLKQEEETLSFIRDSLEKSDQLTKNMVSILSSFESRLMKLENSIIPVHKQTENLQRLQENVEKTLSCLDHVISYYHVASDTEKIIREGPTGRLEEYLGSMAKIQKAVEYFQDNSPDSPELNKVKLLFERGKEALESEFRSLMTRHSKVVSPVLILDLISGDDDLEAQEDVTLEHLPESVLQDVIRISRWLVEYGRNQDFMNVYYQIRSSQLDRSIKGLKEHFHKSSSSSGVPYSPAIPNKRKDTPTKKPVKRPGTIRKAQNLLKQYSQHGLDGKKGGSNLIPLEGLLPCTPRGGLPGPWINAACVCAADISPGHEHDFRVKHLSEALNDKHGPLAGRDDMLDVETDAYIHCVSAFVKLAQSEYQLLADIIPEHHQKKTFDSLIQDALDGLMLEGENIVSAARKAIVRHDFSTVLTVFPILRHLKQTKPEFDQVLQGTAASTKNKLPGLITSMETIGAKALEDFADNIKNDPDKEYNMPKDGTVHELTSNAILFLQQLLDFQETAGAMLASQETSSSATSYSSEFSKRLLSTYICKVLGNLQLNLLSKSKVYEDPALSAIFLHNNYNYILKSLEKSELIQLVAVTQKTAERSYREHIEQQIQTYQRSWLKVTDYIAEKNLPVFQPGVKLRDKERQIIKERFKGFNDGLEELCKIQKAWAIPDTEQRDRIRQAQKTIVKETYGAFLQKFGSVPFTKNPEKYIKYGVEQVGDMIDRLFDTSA

Row | fold binding against human Exo70 [1] | fold binding against yeast Exo70p [2] | Binder
1 | 2 fold | – | B1
2 | – | 4 fold | B2
